The source of these data is patent US20080039616A1.

The target in the test is FLAG® HA BAP fusion protein [phosphatase: P00634]. Nature of the test: immunoprecipitation of purified FLAG HA BAP in 3 extraction buffers, blot with anti-HA-peroxidase.

Regarding ANTI-FLAG® affinity resin (antibody), the protein recovery (% of input protein) (% of input protein) is greater than 70.
